Publication PMC12757481, “The dihydropyridine LA1011 modulates multiple Hsp90—co-chaperone interactions relevant to Alzheimer’s disease” (Cell Stress & Chaperones, 2025)
“And” between values parts separate entries of the source, which are not always exact repeats. Equal entries are not always repeated. Where two headings read alike, the source gives them in different places.

Columns and labels:
Hsp90 [1] = biological target: T1, Hsp90 (Saccharomyces cerevisiae, UniProt P02829); test: ITC, co-chaperone binding to Hsp90; parameters: species or system yeast
T1 construct: made in house
T1 sequence (P02829 whole entry): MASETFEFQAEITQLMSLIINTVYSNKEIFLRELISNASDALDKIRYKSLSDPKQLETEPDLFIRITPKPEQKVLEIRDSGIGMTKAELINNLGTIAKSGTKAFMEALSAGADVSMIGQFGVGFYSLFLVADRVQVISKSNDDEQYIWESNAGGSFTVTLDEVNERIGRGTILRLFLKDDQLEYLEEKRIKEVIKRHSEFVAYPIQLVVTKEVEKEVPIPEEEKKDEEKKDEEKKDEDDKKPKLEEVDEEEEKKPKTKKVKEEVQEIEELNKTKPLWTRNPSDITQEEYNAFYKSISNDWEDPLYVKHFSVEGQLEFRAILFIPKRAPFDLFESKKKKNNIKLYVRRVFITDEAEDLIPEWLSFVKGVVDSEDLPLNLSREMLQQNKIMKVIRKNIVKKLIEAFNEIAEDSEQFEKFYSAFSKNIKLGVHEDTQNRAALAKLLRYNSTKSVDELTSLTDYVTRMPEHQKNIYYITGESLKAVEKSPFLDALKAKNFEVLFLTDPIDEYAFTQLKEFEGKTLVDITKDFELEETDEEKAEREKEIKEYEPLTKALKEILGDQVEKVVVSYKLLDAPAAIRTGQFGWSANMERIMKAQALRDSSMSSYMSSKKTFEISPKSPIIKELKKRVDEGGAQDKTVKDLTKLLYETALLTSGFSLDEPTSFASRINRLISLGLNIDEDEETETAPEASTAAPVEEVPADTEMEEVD
Experimental: (§1) The heat of interaction was measured on an ITC200 microcalorimeter (Microcal) under the same buffer conditions (20 mM Tris, pH 7.5, containing 5 mM NaCl), except for experiments using PP5, where we omitted EDTA and used 1 μM MnCl2. In experiments using nucleotide, we used 5 mM AMPPNP and 6 mM MgCl2. For experiments using Aha1 with AMPPNP the buffer contained 100 mM NaCl. Similarly, Sgt1 experiments also included 100 mM NaCl in the buffer. […] To assess co-chaperone binding to Hsp90 and Hsp90-LA1011 complex, we generally injected aliquots of co-chaperone at concentrations ranging from 200 to 400 μM into the microcell containing the Hsp90 or Hsp90-LA1011 complex at concentrations ranging from 20 to 30 μM of Hsp90 or Hsp90 in complex with 2 mM LA1011 at 30 °C. Heats of dilution were determined by diluting the injectant into the buffer. Data were fitted using a curve-fitting algorithm (Microcal Origin) either as a one-site binding event or as two independent binding sites as required.

Hsp90-LA1011 = biological target: T2, Hsp90-LA1011 (Saccharomyces cerevisiae, UniProt P02829); test: ITC, co-chaperone binding to Hsp90-LA1011 complex; parameters: species or system yeast
T2 construct: made in house
T2 sequence (P02829 whole entry): as above
Experimental: as §1

Hsp90 [2] = biological target: T1, Hsp90; test: Lactate-dehydrogenase and pyruvate-kinase-linked Hsp90 ATPase assay; type: biochemical, yeast; details: for effect of LA1011 on the co-chaperone directed regulation of Hsp90 ATPase activity: 2 μM Hsp90, 240 μM LA1011, co-chaperone 0.25 to 30 μM, normalized data compared with control lacking LA1011
Experimental: ATPase assays using 2 μM Hsp90 were conducted as previously described using the lactate-dehydrogenase and pyruvate-kinase-linked assay.[12] Briefly, 240 μM of LA1011 was used in assays as required. Co-chaperones were added to Hsp90 and Hsp90-LA1011 complex at a variety of concentrations ranging from 0.25 to 30 μM. Assays utilizing LA1011 were normalized by recalculating the activity for all data points so that the data points were converted to a percentage of the activity relative to the first data point, which lacked any addition of co-chaperone. The first data point was therefore 100% max Hsp90 activity. All assays were conducted at least in triplicate.
To assess the effect of LA1011 on the mechanistic action of co-chaperones, we used the lactate-dehydrogenase and pyruvate-kinase-linked Hsp90 ATPase assay. We first assessed the effect of each co-chaperone on Hsp90 ATPase activity and then compared its effect on a Hsp90-LA1011 complex.

[3] = ITC 30 °C, co-chaperone and Hsp90 without LA1011, one-site fit, read-out: Kd
[4] = ITC 30 °C, Hsp90 in complex with 2 mM LA1011, one-site fit, read-out: Kd

| Molecule | Kd (Hsp90 [1]; ITC, Hsp90 without LA1011, two-site fit, value listed first in Table 2 and figures, read-out: Kd (two-site fit, first value listed)) | Kd (Hsp90 [1]; ITC, Hsp90 without LA1011, two-site fit, value listed second in Table 2 and figures, read-out: Kd (two-site fit, second value listed)) | Kd (Hsp90-LA1011; ITC, Hsp90 with 2 mM LA1011, two-site fit, value listed first in Table 2 and figures, read-out: Kd (two-site fit, first value listed)) | Kd (Hsp90-LA1011; ITC, Hsp90 with 2 mM LA1011, two-site fit, value listed second in Table 2 and figures, read-out: Kd (two-site fit, second value listed)) | effect of LA1011 on the co-chaperone directed regulation of Hsp90 ATPase activity (Hsp90 [2]) | Kd (Hsp90 [1]; [3]) | Kd (Hsp90-LA1011; [4]) | effect on Hsp90 ATPase activity (Hsp90 [2]; 2 μM Hsp90) |
| --- | --- | --- | --- | --- | --- | --- | --- | --- |
| FKBP52: Hsp90 co-chaperone, TPR domain-containing protein (protein, UniProt Q02790 1-459, looked up) Peptidyl-prolyl cis-trans …: MTAEEMKATESGAQSAPLPMEGVDISPKQDEGVLKVIKREGTGTEMPMIGDRVFVHYTGWLLDGTKFDSSLDRKDKFSFDLGKGEVIKAWDIAIATMKVGEVCHITCKPEYAYGSAGSPPKIPPNATLVFEVELFEFKGEDLTEEEDGGIIRRIQTRGEGYAKPNEGAIVEVALEGYYKDKLFDQRELRFEIGEGENLDLPYGLERAIQRMEKGEHSIVYLKPSYAFGSVGKEKFQIPPNAELKYELHLKSFEKAKESWEMNSEEKLEQSTIVKERGTVYFKEGKYKQALLQYKKIVSWLEYESSFSNEEAQKAQALRLASHLNLAMCHLKLQAFSAAIESCNKALELDSNNEKGLFRRGEAHLAVNDFELARADFQKVLQLYPNNKAAKTQLAVCQQRIRRQLAREKKLYANMFERLAEEENKAKAEASSGDHPTDTEMKEEQKSNTAGSQSQVETEA | ~620 nM | ~620 nM and 620 nM | 2800 nM | ~200 nM and 200 nM |  |  |  |  |
| TPR domain of PP5: PP5-TPR domain (amino acid residues 1-177) (protein, UniProt P53041 1-177, looked up, fragment, TPR domain) MAMAEGERTECAEPPRDEPPADGALKRAEELKTQANDYFKAKDYENAIKFYSQAIELNPSNAIYYGNRSLAYLRTECYGYALGDATRAIELDKKYIKGYYRRAASNMALGKFRAALRDYETVVKVKPHDKDAKMKYQECNKIVKQKAFERAIAGDEHKRSVVDSLDIESMTIEDEYS |  |  |  |  | small but significant effect |  |  |  |
| Sgt1: yeast Sgt1 (amino acid residues 1-280), Hsp90 co-chaperone (protein, UniProt Q08446 1-280, looked up, fragment) MPVEKDLKTAYKALYDEKEPLKALHLYDEILKGSPTNLTALIFKAACLEKLYFGFSDWHSDATMENAKELLDKALMTAEGRGDRSKIGLVNFRYFVHFFNIKDYELAQSYFKKAKNLGYVDDTLPLWEDRLETKLNKKNKKQKDSTNKHTIKPVESIENRGDNNSSHSPISPLKIETAPQESPKFKIDWYQSSTSVTISLFTVNLPESKEQVNIYISPNDRRTLSISYQVPKSGSEFQYNAKLSHEVDPKAVSLKIFPKKLEITLSKIDSTQWKKLEEDI |  |  |  |  | unaffected by the presence of LA1011 | 16200 nM | 13600 nM |  |
| CHIP: mouse CHIP, Hsp90-dependent E3 ubiquitin ligase co-chaperone, dimeric (protein, UniProt Q9WUD1 1-304, looked up) E3 ubiquitin-protein ligase …: MKGKEEKEGGARLGTGGGGSPDKSPSAQELKEQGNRLFVGRKYPEAAACYGRAITRNPLVAVYYTNRALCYLKMQQPEQALADCRRALELDGQSVKAHFFLGQCQLEMESYDEAIANLQRAYSLAKEQRLNFGDDIPSALRIAKKKRWNSIEERRIHQESELHSYLTRLIAAERERELEECQRNHEGHEDDGHIRAQQACIEAKHDKYMADMDELFSQVDEKRKKRDIPDYLCGKISFELMREPCITPSGITYDRKDIEEHLQRVGHFDPVTRSPLTQEQLIPNLAMKEVIDAFISENGWVEDY |  |  |  |  | LA1011 affects CHIP’s ability to inhibit Hsp90 ATPase activity | 80 nM | 1440 nM | inhibitor of the ATPase activity of Hsp90 |
